# Assay results reported in PMC10440475 (Heliyon, 2023).
# “And” between values parts separate entries of the source, which are not always exact repeats. Identical values can stand only once.
# Molecular target: the molecule itself
# Experiment: PFO-PAGE
protein,measurement,value
ORF3aΔN-eGFP (N-terminus truncated SARS-CoV-2 ORF3a with C-terminal eGFP) (domain or fragment) PFGWLIVGVALLAVFQSASKIITLKKRWQLALSKGVHFVCNLLLLFVTVYSHLLLVAAGLEAPFLYLYALVYFLQSINFVRIIMRLWLCWKCRSKNPLLYDANYFLCWHTNCYDYCIPYNSVTSSIVITSGDGTTSPISEHDYQIGGYTEKWESGVKDCVVLHSYFTSDYYQLYSTQLSTDTGVEHVTFFIYNKIVDEPEEHVQIHTIDGSSGVVNPVMEPIYDEPTTTTSVPL,stoichiometry N,5 and 2 and 3 and 4
